# Measurements reported in patent US20240400614A1, “CLEAVABLE PEPTIDES AND METHODS OF USE THEREOF” (Bright Peak Therapeutics AG, priority 2023, published 2024).
# Square brackets hold non-standard residues; d marks the D form. Ends that are not written are not given here. Tyr(3-NO2) = N[C@@H](Cc1ccc(O)c([N+](=O)[O-])c1)C(=O)O; 2Abz = Nc1ccccc1C(=O)O
# Assays:
# Assay type in all cases: biochemical
# uPA = uPA (Homo sapiens, UniProt P00749); assay: FRET peptide cleavage efficiency with uPA; details: 200 uM linker, 1 ug/ml protease, 37° C., buffer A pH 8.5
# MMP-2 = molecular target: T1, MMP-2 (Homo sapiens, UniProt P08253); assay: FRET peptide cleavage efficiency with MMP-2; details: 200 uM linker, 1 ug/ml protease, 37° C., buffer C pH 7.5
# T1 construct: purchased SIGMA PF023
# T1 sequence (P08253 110-660): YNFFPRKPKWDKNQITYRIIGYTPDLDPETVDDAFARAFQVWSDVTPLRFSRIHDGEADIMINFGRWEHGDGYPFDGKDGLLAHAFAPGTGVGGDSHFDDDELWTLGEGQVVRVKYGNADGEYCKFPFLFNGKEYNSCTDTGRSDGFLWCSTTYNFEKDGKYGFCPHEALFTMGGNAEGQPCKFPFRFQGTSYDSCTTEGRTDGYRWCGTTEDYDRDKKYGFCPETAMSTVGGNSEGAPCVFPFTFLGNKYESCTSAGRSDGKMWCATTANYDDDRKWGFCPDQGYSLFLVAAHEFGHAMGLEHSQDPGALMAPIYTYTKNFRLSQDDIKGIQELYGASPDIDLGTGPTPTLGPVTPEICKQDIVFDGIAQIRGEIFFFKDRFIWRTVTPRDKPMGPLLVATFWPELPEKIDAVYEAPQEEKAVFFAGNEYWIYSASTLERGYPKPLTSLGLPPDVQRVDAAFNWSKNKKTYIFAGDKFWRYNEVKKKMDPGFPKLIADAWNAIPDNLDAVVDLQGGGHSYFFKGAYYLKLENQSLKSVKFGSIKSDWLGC
# matriptase = molecular target: T2, matriptase (Homo sapiens, UniProt Q9Y5Y6); assay: FRET peptide cleavage efficiency with matriptase; details: 200 uM linker, 1 ug/ml protease, 37° C., buffer B pH 9.0
# T2 construct: purchased R&D Systems 3946-SEB
# T2 sequence (Q9Y5Y6 615-855 limits assumed): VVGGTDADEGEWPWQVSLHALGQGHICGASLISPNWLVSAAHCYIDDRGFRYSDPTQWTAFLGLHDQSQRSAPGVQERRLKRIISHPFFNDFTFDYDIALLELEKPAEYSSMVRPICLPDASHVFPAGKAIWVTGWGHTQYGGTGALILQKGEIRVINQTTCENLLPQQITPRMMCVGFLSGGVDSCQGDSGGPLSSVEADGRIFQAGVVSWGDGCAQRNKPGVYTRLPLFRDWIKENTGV
# Kallikrein-3 = Kallikrein-3 (Homo sapiens, UniProt P07288); assay: FRET peptide cleavage efficiency with Kallikrein-3; details: peptide 200 uM, Kallikrein-3 2 μg/ml, 37° C., pH 8
# Chain of Kallikrein-3 (P07288 25-261, species assumed): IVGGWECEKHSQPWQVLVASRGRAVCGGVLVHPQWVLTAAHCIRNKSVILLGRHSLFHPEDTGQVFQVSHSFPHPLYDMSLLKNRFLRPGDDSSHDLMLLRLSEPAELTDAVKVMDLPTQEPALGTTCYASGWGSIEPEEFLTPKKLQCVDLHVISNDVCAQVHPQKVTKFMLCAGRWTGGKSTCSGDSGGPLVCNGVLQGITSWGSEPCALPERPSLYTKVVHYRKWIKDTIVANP
Substance,% cleavage uPA t = 15 min (uPA) [%],% cleavage uPA t = 60 min (uPA) [%],% cleavage uPA t = 120 min (uPA) [%],% cleavage MMP-2 t = 15 min (MMP-2) [%],% cleavage MMP-2 t = 60 min (MMP-2) [%],% cleavage MMP-2 t = 120 min (MMP-2) [%],% cleavage Matriptase t = 15 min (matriptase) [%],% cleavage Matriptase t = 60 min (matriptase) [%],% cleavage Matriptase t = 120 min (matriptase) [%],Kallikrein-3 t = 1 h % cleavage (Kallikrein-3) [%],Kallikrein-3 t = 3 h % cleavage (Kallikrein-3) [%],Kallikrein-3 t = 6 h % cleavage (Kallikrein-3) [%],Kallikrein-3 t = 8 h % cleavage (Kallikrein-3) [%]
GSSVYSGR ([2Abz]GSSVYSGR[Tyr(3-NO2)]-NH2) [LNK080],4,17,28,1,3,5,2,6,10,16,41,68,79
GSSYYSGA ([2Abz]GSSYYSGA[Tyr(3-NO2)]-NH2) [LNK079],0,0,0,10,42,70,0,0,0,34,75,99,100
HSSKLQL ([2Abz]HSSKLQL[Tyr(3-NO2)]-NH2) [LNK078],0,0,0,3,6,8,0,0,0,10,34,64,79
ISQYSSAT ([2Abz]ISQYSSAT[Tyr(3-NO2)]-NH2) [LNK070],0,0,0,0,0,0,0,0,0,0,0,0,0
KLYSSKQ ([2Abz]KLYSSKQ[Tyr(3-NO2)]-NH2) [LNK071],0,0,0,1,13,28,0,0,0,23,55,83,94
KSKQHSL ([2Abz]KSKQHSL[Tyr(3-NO2)]-NH2) [LNK077],0,0,0,3,4,6,0,0,0,9,30,56,69
RRLHYSL ([2Abz]RRLHYSL[Tyr(3-NO2)]-NH2) [LNK073],0,0,0,1,4,6,1,3,5,20,51,79,91
SQLYSSPG ([2Abz]SQLYSSPG[Tyr(3-NO2)]-NH2) [LNK068],,,,2,9,18,0,0,0,31,70,94,100
SQYQSSPG ([2Abz]SQYQSSPG[Tyr(3-NO2)]-NH2) [LNK067],,,,1,5,10,0,0,0,8,22,41,51
SSLQSSPG ([2Abz]SSLQSSPG[Tyr(3-NO2)]-NH2) [LNK066],,,,1,5,9,0,0,0,14,40,67,78
SSLYSSPG ([2Abz]SSLYSSPG[Tyr(3-NO2)]-NH2) [LNK065],,,,3,12,21,0,0,0,32,68,93,100
